From the supplement of paper PMC9112550, “Optimization of the antimicrobial peptide Bac7 by deep mutational scanning” (BMC Biology, 2022) come the findings set out here.

For the data set, the system named is Escherichia coli TOP10. Kind of data set: shrunken log2 fold change of peptide-encoding DNA abundance (4.5 h post-induction vs induction); higher = less antimicrobial activity (less host growth inhibition). The following applies: time post-induction: 4.5 h; library: site-saturation at positions 5, 18, 19, 20.
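Also: peptides expressed intracellularly from a pBAD plasmid library in pooled LB shake-flask culture, induced with 0.3% L-arabinose, DNA abundance read by NGS, three biological replicates, DESeq2 with apeglm shrinkage.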

Turning to RRIRPRPPRLPRPRPRPDCMPRP, the “shrunken log2 fold change” value came out at 0.053.
With RRIRMRPPRLPRPRPRPSCPPRP, the “shrunken log2 fold change” value is -0.0916.
RRIRLRPPRLPRPRPRPDTLPRP: the “shrunken log2 fold change” value is -0.15.
Regarding RRIRDRPPRLPRPRPRPTKDPRP, the “shrunken log2 fold change” value turned out to be 0.0518.
As to RRIRTRPPRLPRPRPRPCCKPRP, the “shrunken log2 fold change” value was -0.279.
With RRIRERPPRLPRPRPRPQDSPRP the figure was -0.222; with RRIRKRPPRLPRPRPRPVAQPRP, 0.541; with RRIRERPPRLPRPRPRPTGKPRP, -0.0509.
With RRIRDRPPRLPRPRPRPVMMPRP the figure was -0.168.
As for RRIRGRPPRLPRPRPRPQAYPRP, the “shrunken log2 fold change” value was -0.0978.
RRIRVRPPRLPRPRPRPTTKPRP: the “shrunken log2 fold change” value was -0.162.
Then RRIRTRPPRLPRPRPRPHSHPRP, with -0.626; and RRIRNRPPRLPRPRPRPPTDPRP, with 0.992.
Then RRIRYRPPRLPRPRPRPIAIPRP, with -0.217; and RRIRTRPPRLPRPRPRPWRRPRP, with 0.496; and RRIRQRPPRLPRPRPRPLGQPRP, with 0.125.
With RRIRARPPRLPRPRPRPEPCPRP the figure was 0.126; with RRIRARPPRLPRPRPRPLNTPRP, -0.169; with RRIRTRPPRLPRPRPRPRDSPRP, 0.538.
As for RRIRARPPRLPRPRPRPRPVPRP, the “shrunken log2 fold change” value stood at 0.771.
With RRIRLRPPRLPRPRPRPRRYPRP the figure was -0.00737; with RRIRSRPPRLPRPRPRPFYGPRP, -0.507; with RRIRPRPPRLPRPRPRPMPCPRP, 0.0941.
With RRIRTRPPRLPRPRPRPHIFPRP the figure was 2.13; with RRIRQRPPRLPRPRPRPIKHPRP, -0.12; with RRIRGRPPRLPRPRPRPINFPRP, -0.189.
With RRIRARPPRLPRPRPRPPCSPRP the figure was 0.752.
Regarding RRIRQRPPRLPRPRPRPLTFPRP, the “shrunken log2 fold change” value is -0.0576.
Then RRIRCRPPRLPRPRPRPRHWPRP, with 0.261.
Then RRIRLRPPRLPRPRPRPDIKPRP, with -0.145; and RRIRCRPPRLPRPRPRPQKHPRP, with -0.0816; and RRIRVRPPRLPRPRPRPIHDPRP, with -0.0895.
As to RRIRYRPPRLPRPRPRPNMQPRP, the “shrunken log2 fold change” value is -0.594.
Consider RRIRIRPPRLPRPRPRPTFLPRP, for which the “shrunken log2 fold change” value is -0.679.
With RRIRSRPPRLPRPRPRPGEVPRP, the “shrunken log2 fold change” value turned out to be 0.223.
With RRIRCRPPRLPRPRPRPIKGPRP the figure was -0.0586; with RRIRVRPPRLPRPRPRPFRAPRP, -0.0855; with RRIRHRPPRLPRPRPRPMGSPRP, -0.0537.
With RRIRERPPRLPRPRPRPCNDPRP, the “shrunken log2 fold change” value is -0.19.
Then RRIRGRPPRLPRPRPRPPHAPRP, with 1.37; and RRIRSRPPRLPRPRPRPKWEPRP, with 0.274; and RRIRDRPPRLPRPRPRPQESPRP, with -0.257.
With RRIRDRPPRLPRPRPRPHPCPRP the figure was 0.0731.
For RRIRMRPPRLPRPRPRPMEAPRP, the “shrunken log2 fold change” value was found to be 0.0555.
For the sequence RRIRYRPPRLPRPRPRPPTLPRP, the “shrunken log2 fold change” value was -0.274.
Regarding RRIRNRPPRLPRPRPRPIRKPRP, the “shrunken log2 fold change” value was -0.0111.
With RRIRTRPPRLPRPRPRPTIGPRP the figure was -0.000966; with RRIRNRPPRLPRPRPRPWCEPRP, 0.034.
RRIRLRPPRLPRPRPRPKKYPRP: the “shrunken log2 fold change” value is -0.143.
Then RRIRMRPPRLPRPRPRPSRHPRP, with 0.228; and RRIRKRPPRLPRPRPRPIWYPRP, with -0.26.
For RRIRIRPPRLPRPRPRPQQVPRP, the “shrunken log2 fold change” value was 0.00944.
As for RRIRHRPPRLPRPRPRPEMNPRP, the “shrunken log2 fold change” value is -0.0935.
For RRIRSRPPRLPRPRPRPWHIPRP, the “shrunken log2 fold change” value was -0.0156.
Then RRIRTRPPRLPRPRPRPDITPRP, with -0.236; and RRIRYRPPRLPRPRPRPVLLPRP, with -0.109; and RRIRMRPPRLPRPRPRPDIIPRP, with 1.42.
Then RRIRLRPPRLPRPRPRPCHAPRP, with -0.235.
Then RRIRVRPPRLPRPRPRPMTYPRP, with -0.494; and RRIRHRPPRLPRPRPRPMICPRP, with -0.163; and RRIRCRPPRLPRPRPRPMNDPRP, with -0.44.
In the case of RRIRQRPPRLPRPRPRPEHIPRP, the “shrunken log2 fold change” value is -0.0129.
Turning to RRIRHRPPRLPRPRPRPTIRPRP, the “shrunken log2 fold change” value was -0.689.
With RRIRARPPRLPRPRPRPHPRPRP the figure was 0.696; with RRIRTRPPRLPRPRPRPLPEPRP, 0.126; with RRIRPRPPRLPRPRPRPKPAPRP, 0.157.
With RRIRVRPPRLPRPRPRPVGDPRP the figure was 0.294.
Then RRIRCRPPRLPRPRPRPTPEPRP, with 0.284; and RRIRDRPPRLPRPRPRPVIAPRP, with 0.224; and RRIRRRPPRLPRPRPRPVRGPRP, with 0.805.
With RRIRWRPPRLPRPRPRPKHSPRP, the “shrunken log2 fold change” value was determined as 0.0898.
On to RRIRDRPPRLPRPRPRPAWLPRP, for which the “shrunken log2 fold change” value amounted to 0.266.
With RRIRTRPPRLPRPRPRPVHTPRP the figure was 0.243.
Then RRIRARPPRLPRPRPRPHEIPRP, with -0.107.
Then RRIRCRPPRLPRPRPRPNTTPRP, with -0.291; and RRIRDRPPRLPRPRPRPQPTPRP, with 0.0584.
RRIRHRPPRLPRPRPRPQVAPRP: the “shrunken log2 fold change” value turned out to be 0.0753.
Then RRIRNRPPRLPRPRPRPCEQPRP, with -0.00776.
With RRIRMRPPRLPRPRPRPWMMPRP the figure was 0.024.
With RRIRLRPPRLPRPRPRPDHTPRP the figure was -0.0215; with RRIRLRPPRLPRPRPRPEQHPRP, 0.243; with RRIRWRPPRLPRPRPRPNPLPRP, 3.58e-05.
For the sequence RRIRHRPPRLPRPRPRPKQIPRP, the “shrunken log2 fold change” value was -0.0133.
As to RRIRYRPPRLPRPRPRPCCPPRP, the “shrunken log2 fold change” value was -0.38.
Regarding RRIRWRPPRLPRPRPRPFSKPRP, the “shrunken log2 fold change” value is -0.0531.
With RRIRPRPPRLPRPRPRPWPMPRP the figure was -0.151; with RRIRSRPPRLPRPRPRPGLAPRP, 0.444.
In the case of RRIRCRPPRLPRPRPRPWMTPRP, the “shrunken log2 fold change” value was -0.188.
As to RRIRYRPPRLPRPRPRPAAKPRP, the “shrunken log2 fold change” value came out at 0.152.
For the sequence RRIRERPPRLPRPRPRPCATPRP, the “shrunken log2 fold change” value came out at 0.0398.
Then RRIRPRPPRLPRPRPRPFYTPRP, with -0.429.
With RRIRGRPPRLPRPRPRPNGHPRP the figure was 0.197; with RRIRQRPPRLPRPRPRPTTMPRP, -0.11; with RRIRPRPPRLPRPRPRPCHRPRP, -0.181.
Then RRIRMRPPRLPRPRPRPDSYPRP, with 0.0873.
Take RRIRTRPPRLPRPRPRPQESPRP: the “shrunken log2 fold change” value is -0.0142.
Then RRIRCRPPRLPRPRPRPVMSPRP, with -0.136.
Then RRIRERPPRLPRPRPRPNHNPRP, with -0.418; and RRIRVRPPRLPRPRPRPDMPPRP, with -0.264.
On to RRIRLRPPRLPRPRPRPDPFPRP, for which the “shrunken log2 fold change” value was -0.228.
As to RRIRRRPPRLPRPRPRPNRWPRP, the “shrunken log2 fold change” value stood at 0.107.
Then RRIRQRPPRLPRPRPRPAFSPRP, with 0.12.
Regarding RRIRMRPPRLPRPRPRPMFLPRP, the “shrunken log2 fold change” value was -0.273.
Consider RRIRARPPRLPRPRPRPYKIPRP, for which the “shrunken log2 fold change” value is -0.455.
Then RRIRQRPPRLPRPRPRPIGKPRP, with 0.0819; and RRIRGRPPRLPRPRPRPHVIPRP, with -0.191; and RRIRKRPPRLPRPRPRPGAPPRP, with 0.85.
Then RRIRTRPPRLPRPRPRPQMWPRP, with -0.0505; and RRIRPRPPRLPRPRPRPWVMPRP, with 0.211; and RRIRFRPPRLPRPRPRPIYIPRP, with -0.832.
With RRIRYRPPRLPRPRPRPGLYPRP the figure was -0.486; with RRIRHRPPRLPRPRPRPFGIPRP, -0.0887; with RRIRNRPPRLPRPRPRPWVMPRP, -0.00783.
RRIRDRPPRLPRPRPRPSKRPRP: the “shrunken log2 fold change” value was -0.273.
Take RRIRMRPPRLPRPRPRPIFDPRP: the “shrunken log2 fold change” value is 0.00763.
As to RRIRWRPPRLPRPRPRPSRAPRP, the “shrunken log2 fold change” value amounted to 0.397.
Then RRIRWRPPRLPRPRPRPCFGPRP, with -0.119; and RRIRKRPPRLPRPRPRPRGAPRP, with 0.891; and RRIRRRPPRLPRPRPRPRIWPRP, with 0.666.
With RRIRSRPPRLPRPRPRPIEAPRP, the “shrunken log2 fold change” value was 0.137.
Turning to RRIRLRPPRLPRPRPRPVWGPRP, the “shrunken log2 fold change” value was 0.0435.
Then RRIRLRPPRLPRPRPRPDLLPRP, with -0.0261.
With RRIRKRPPRLPRPRPRPPGQPRP the figure was 1.25; with RRIRWRPPRLPRPRPRPKCTPRP, 1.21.
Turning to RRIRDRPPRLPRPRPRPKKWPRP, the “shrunken log2 fold change” value was -0.0255.
